# Measurements reported in PMC12724223.
# Molecular target: T cell receptor subunit CD3ζ (human) (human (endogenous in primary CD4+ T cells))
row,Substance,"fold downregulation of cell surface CD3 relative to ΔNef, transduced primary huCD4+ T cells, flow cytometry (Fig. 5B)"
1,SIVmac239 WT Nef (natural protein),15.2 fold
2,SIVmac239 I123L L146F Nef (natural protein),2.7 fold
